Source: paper PMC9482650, “Quantitative fragmentomics allow affinity mapping of interactomes” (Nature Communications, 2022)

Experiments:
Assay in all cases: holdup assay
Parameters in all cases: key: below the threshold = too weak to quantify, mostly under pKd 3.1 to 4
Conditions in all cases: plain residues with an end cap or a label only (N-terminal biotin on a linker: ttds)
APBA3_1, O96018 = target: T1, APBA3_1, O96018
T1 sequence (O96018 389-490, limits assumed, looked up): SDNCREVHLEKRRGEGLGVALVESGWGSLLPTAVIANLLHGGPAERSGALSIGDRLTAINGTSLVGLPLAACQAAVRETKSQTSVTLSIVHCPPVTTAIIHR

CASK, O14936 = target: CASK, O14936
DLG1_3, Q12959 = target: DLG1_3, Q12959
DLG3_1, Q92796 = target: T2, DLG3_1, Q92796
T2 sequence (Q92796 125-227, limits assumed, looked up): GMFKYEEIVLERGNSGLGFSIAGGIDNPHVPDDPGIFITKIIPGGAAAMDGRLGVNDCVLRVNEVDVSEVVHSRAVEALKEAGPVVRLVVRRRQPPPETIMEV

DLG3_2, Q92796 = target: T3, DLG3_2, Q92796
T3 sequence (Q92796 221-321, limits assumed, looked up): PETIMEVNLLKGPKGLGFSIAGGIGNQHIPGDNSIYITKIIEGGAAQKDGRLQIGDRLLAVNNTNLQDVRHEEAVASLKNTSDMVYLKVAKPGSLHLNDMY

DLG4_1, P78352 = target: DLG4_1, P78352
FRMPD2_3, Q68DX3 = target: FRMPD2_3, Q68DX3
GORASP2, Q9H8Y8 = target: GORASP2, Q9H8Y8
Inadl_5, Q8NI35 = target: Inadl_5, Q8NI35
LNX1_1, Q8TBB1 = target: LNX1_1, Q8TBB1
LNX2_3, Q8N448 = target: T4, LNX2_3, Q8N448
T4 sequence (Q8N448 463-564, limits assumed, looked up): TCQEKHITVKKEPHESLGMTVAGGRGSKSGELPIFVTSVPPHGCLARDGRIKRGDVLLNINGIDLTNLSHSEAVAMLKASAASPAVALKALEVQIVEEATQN

MPDZ_5, O75970 = target: T5, MPDZ_5, O75970
T5 sequence (O75970 695-796, limits assumed, looked up): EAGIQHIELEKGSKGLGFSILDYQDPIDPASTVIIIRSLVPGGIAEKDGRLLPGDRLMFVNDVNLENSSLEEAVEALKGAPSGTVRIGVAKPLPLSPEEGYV

MPP7, Q5T2T1 = target: T6, MPP7, Q5T2T1
T6 sequence (Q5T2T1 134-230, limits assumed, looked up): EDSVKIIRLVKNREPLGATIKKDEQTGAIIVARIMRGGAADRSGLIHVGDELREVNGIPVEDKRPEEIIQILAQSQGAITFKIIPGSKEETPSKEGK

NHERF4_1, Q86UT5-2 = target: NHERF4_1, Q86UT5-2
PDZRN3_1, Q9UPQ7 = target: T7, PDZRN3_1, Q9UPQ7
T7 sequence (Q9UPQ7 244-349, limits assumed, looked up): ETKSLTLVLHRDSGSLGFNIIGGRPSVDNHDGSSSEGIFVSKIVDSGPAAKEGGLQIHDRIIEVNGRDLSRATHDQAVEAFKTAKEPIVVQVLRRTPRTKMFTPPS

PICK1, Q9NRD5 = target: PICK1, Q9NRD5
PTPN13_1, Q12923 = target: T8, PTPN13_1, Q12923
T8 sequence (Q12923 1088-1188, limits assumed, looked up): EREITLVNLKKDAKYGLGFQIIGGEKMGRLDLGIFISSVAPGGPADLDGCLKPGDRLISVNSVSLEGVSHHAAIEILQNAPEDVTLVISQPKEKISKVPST

RHPN1, Q8TCX5 = target: T9, RHPN1, Q8TCX5
T9 sequence (Q8TCX5 508-602, limits assumed, looked up): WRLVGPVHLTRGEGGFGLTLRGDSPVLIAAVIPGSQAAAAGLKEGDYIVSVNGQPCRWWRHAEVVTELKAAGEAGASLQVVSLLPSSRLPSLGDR

SCRIB_1, Q14160 = target: SCRIB_1, Q14160
SCRIB_2, Q14160 = target: SCRIB_2, Q14160
SCRIB_3, Q14160 = target: SCRIB_3, Q14160
SHANK1, Q9Y566 = target: T10, SHANK1, Q9Y566
T10 sequence (Q9Y566 658-767, limits assumed, looked up): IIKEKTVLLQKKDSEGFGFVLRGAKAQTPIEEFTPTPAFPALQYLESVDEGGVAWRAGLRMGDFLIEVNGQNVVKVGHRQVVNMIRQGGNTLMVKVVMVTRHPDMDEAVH

SNTG1, Q9NSN8 = target: T11, SNTG1, Q9NSN8
T11 sequence (Q9NSN8 52-150, limits assumed, looked up): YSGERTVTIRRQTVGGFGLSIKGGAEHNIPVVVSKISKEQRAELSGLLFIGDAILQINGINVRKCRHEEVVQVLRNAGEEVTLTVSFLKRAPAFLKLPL

SNX27, Q96L92 = target: SNX27, Q96L92
TJP2_1, Q9UDY2 = target: TJP2_1, Q9UDY2
Chain of TJP2_1, Q9UDY2 (Q9UDY2 24-128): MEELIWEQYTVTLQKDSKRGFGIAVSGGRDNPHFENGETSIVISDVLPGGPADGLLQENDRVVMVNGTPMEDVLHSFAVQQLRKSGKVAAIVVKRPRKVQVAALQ

Chain of DLG1_3, Q12959 (Q12959 457-571): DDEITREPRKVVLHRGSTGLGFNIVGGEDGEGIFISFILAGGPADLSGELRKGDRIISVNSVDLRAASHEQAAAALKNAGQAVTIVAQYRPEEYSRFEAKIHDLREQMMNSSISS
Chain of SCRIB_2, Q14160 (Q14160 857-960): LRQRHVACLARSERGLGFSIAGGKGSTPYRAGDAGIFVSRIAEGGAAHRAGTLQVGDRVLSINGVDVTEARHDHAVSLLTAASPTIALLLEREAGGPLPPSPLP
Chain of FRMPD2_3, Q68DX3 (Q68DX3 1073-1166): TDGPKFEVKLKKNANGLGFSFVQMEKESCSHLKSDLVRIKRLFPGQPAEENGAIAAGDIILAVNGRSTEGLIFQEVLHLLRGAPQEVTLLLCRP
Chain of SCRIB_3, Q14160 (Q14160 999-1103): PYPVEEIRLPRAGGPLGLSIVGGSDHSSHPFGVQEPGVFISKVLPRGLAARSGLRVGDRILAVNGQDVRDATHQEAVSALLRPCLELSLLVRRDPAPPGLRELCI
Chain of SCRIB_1, Q14160 (Q14160 718-814): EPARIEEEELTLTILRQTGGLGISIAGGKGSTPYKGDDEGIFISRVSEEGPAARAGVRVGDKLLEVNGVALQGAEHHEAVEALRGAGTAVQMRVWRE
Chain of Inadl_5, Q8NI35 (Q8NI35 673-780): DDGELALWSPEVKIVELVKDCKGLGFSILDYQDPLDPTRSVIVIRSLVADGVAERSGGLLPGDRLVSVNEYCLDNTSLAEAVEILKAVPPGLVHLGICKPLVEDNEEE
Chain of DLG4_1, P78352 (P78352 62-152): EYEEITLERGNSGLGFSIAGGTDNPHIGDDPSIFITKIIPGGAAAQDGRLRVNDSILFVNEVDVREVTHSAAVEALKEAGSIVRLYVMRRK
Chain of NHERF4_1, Q86UT5-2 (Q86UT5 other isoform, or with tags, fused parts or gaps): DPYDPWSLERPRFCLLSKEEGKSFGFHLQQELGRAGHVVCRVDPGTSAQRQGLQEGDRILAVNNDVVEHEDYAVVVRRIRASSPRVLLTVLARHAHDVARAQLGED
Chain of PICK1, Q9NRD5 (Q9NRD5 17-115): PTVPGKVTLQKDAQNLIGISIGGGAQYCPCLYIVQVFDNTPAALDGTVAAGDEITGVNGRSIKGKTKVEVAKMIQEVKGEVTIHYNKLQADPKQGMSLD
Chain of LNX1_1, Q8TBB1 (Q8TBB1 261-371): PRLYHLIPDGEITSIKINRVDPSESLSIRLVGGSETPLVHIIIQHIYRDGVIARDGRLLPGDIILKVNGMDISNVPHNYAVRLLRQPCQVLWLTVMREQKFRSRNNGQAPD
Chain of CASK, O14936 (O14936 487-570): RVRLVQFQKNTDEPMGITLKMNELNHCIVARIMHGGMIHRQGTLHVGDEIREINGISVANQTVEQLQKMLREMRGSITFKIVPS

Binder	pKd (APBA3_1, O96018)	pKd (CASK, O14936)	pKd (DLG1_3, Q12959)	pKd (DLG3_1, Q92796)	pKd (DLG3_2, Q92796)	pKd (DLG4_1, P78352)	pKd (FRMPD2_3, Q68DX3)	pKd (GORASP2, Q9H8Y8)	pKd (Inadl_5, Q8NI35)	pKd (LNX1_1, Q8TBB1)	pKd (LNX2_3, Q8N448)	pKd (MPDZ_5, O75970)	pKd (MPP7, Q5T2T1)	pKd (NHERF4_1, Q86UT5-2)	pKd (PDZRN3_1, Q9UPQ7)	pKd (PICK1, Q9NRD5)	pKd (PTPN13_1, Q12923)	pKd (RHPN1, Q8TCX5)	pKd (SCRIB_1, Q14160)	pKd (SCRIB_2, Q14160)	further results
SVWLRKETRV [CYSLTR2, Q9NS75]	below the threshold	below the threshold	5.57	4.41	5.32	4.92	3.57	4.01	3.62	3.59	below the threshold	3.36	below the threshold	below the threshold	5.1	3.42	3.43	4.08	4.28	4.42	pKd (SCRIB_3, Q14160): 4.85; pKd (SHANK1, Q9Y566): 3.51; pKd (SNTG1, Q9NSN8): 4.43; pKd (SNX27, Q96L92): 4.95; pKd (TJP2_1, Q9UDY2): 4.45
RSLEEEESQL [GRASP, Q7Z6J2]	below the threshold	below the threshold	4.36	3.6	3.63	3.63	4.08	below the threshold	below the threshold	below the threshold	below the threshold	3.53	below the threshold	3.9	4.24	3.59	3.63	4.71	3.55	3.87	pKd (SCRIB_3, Q14160): 4.23; pKd (SHANK1, Q9Y566): 5.1; pKd (SNTG1, Q9NSN8): 3.86; pKd (SNX27, Q96L92): 5.69; pKd (TJP2_1, Q9UDY2): 3.65
SRPQRTQTQV [HPV67-E6, A4U7F2]	below the threshold	below the threshold	4.13	3.89	5.06	4.58	below the threshold	below the threshold	below the threshold	below the threshold	below the threshold	below the threshold	below the threshold	below the threshold	3.76	below the threshold	below the threshold	3.84	below the threshold	3.4	pKd (SCRIB_3, Q14160): 3.93; pKd (SHANK1, Q9Y566): below the threshold; pKd (SNTG1, Q9NSN8): below the threshold; pKd (SNX27, Q96L92): 3.98; pKd (TJP2_1, Q9UDY2): 3.86
